In patent publication US20110117093A1 (published 2011):
Each block holds one binder with its values, some of them ahead of it.

Experiments:
[1] = target: T1, TNF-alpha (human, UniProt P01375 77-233); experiment: phage ELISA
T1 construct: also called TNFα; Tumour Necrosis Factor-alpha

[2] = target: T2, membrane-bound B Lymphocyte Stimulator on P388 plasma membranes (mouse, UniProt Q9WU72 1-309); experiment: phage competition ELISA
T2 construct: whole, on cells

[3] = target: T3, biotinylated B Lymphocyte Stimulator (human, soluble form) (human, UniProt Q9Y275 134-285, NHS-biotin labelled at a molar ratio of 20:1 biotin:B Lymphocyte Stimulator); experiment: purified scFv; inhibition of biotinylated BLyS binding to IM9 cells
T3 construct: also called bio-B Lymphocyte Stimulator

[4] = target: T4, B Lymphocyte Stimulator, human, soluble form (human, UniProt Q9Y275 134-285); experiment: phage ELISA
T4 construct: also called BLyS; immobilized B Lymphocyte Stimulator

[5] = target: T5, biotinylated B Lymphocyte Stimulator (soluble form) (human, UniProt Q9Y275 134-285, biotinylated with NHS-biotin (20:1 biotin:protein)); experiment: phage scFv, IM9 receptor binding inhibition
T5 construct: The biotinylation protocol covers human or mouse protein; also called bio-B Lymphocyte Stimulator; free B Lymphocyte Stimulator
Procedure: Plates were washed three times in PBST and three times in PBS, tapped dry and 50 μl of streptavidin-Delfia (Wallac) was added to each well at 1:1000 dilution in the Manufacturer's assay buffer. The plates were then incubated at room temperature for 1 hour and washed six times in Delfia wash solution (Wallac). After tapping the plates dry, 100 μl per well of Delfia enhancement solution (Wallac) was added. The plates were gently tapped to encourage micelle formation, incubated at room temperature for 10 minutes, and fluorescence read on a Wallac 1420 workstation at […].
All of the unique phage scFvs from panel 2 were assessed for their ability to inhibit B Lymphocyte Stimulator binding to its cognate receptor on IM9 cells. The biotinylation of B Lymphocyte Stimulator, maintenance of IM9 cells and receptor binding inhibition assay were performed as described in Example 3.

T2 sequence (Q9WU72 whole entry): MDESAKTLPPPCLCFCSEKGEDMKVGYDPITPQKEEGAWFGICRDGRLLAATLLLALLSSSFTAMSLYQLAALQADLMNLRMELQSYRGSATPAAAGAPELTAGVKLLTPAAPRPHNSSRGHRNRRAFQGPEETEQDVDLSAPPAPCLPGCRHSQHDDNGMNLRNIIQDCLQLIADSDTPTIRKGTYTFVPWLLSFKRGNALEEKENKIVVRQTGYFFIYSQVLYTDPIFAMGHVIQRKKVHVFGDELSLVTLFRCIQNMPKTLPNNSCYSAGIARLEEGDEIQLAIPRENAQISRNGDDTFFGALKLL
T1 sequence (P01375 77-233 limits assumed): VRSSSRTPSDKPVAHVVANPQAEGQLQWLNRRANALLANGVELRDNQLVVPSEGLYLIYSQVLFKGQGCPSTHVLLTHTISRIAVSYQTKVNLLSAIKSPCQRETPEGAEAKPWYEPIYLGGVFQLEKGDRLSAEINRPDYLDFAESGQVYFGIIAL

binding result [1]: no binding
B1: I018D07 (scFv)
scFv: GVQLVQSGPEVKKPGASVIVSCTASGYTFTSYGVSWVRQAPGQGLEWIGWISAHNGQTKYAEKFQGRVTMTRNTSISTAYMELSSLRSEDTAVYYCARDGSYDILTGYYIDNYMDVWGKGTMVTVSSGGGGSGGGGSGGGGSSELTQDPAVSVALGQTVRITCQGDSLRSYYTNWFQQKPGQAPLLVVYAKNKRPSGIPDRFSGSSSGNTASLTITGAQAEDEADYYCHSRDSSGNHVLFGGGTKLTVLG

binding result [2]: binds
B4: I080B01 (scFv)
scFv: QVQLVQSGAEVKKPGASVKVSCKASGYTFTNYYMHWVRQAPGQGLEWMGIINPRDVSTTYAQKFQGRATMTRDTSTSTVYMELNSLRSEDTAVYYCAREYSGYHYVEGGSYAMDVWGQGTMVTVSSGGGGSGGGGSGGGGSALSYVLTQPPSASGTPGQRVTITCSGSSSNIGNYYVNWYQQVSGTAPKLIIYRNNQRPSGVPDRFSGSKSGASASLAISGLRSEDEADYFCAAWDDSLREFVFGTGTKVTVLG

binding result [2]: binds
B5: I079F08 (scFv)
scFv: QMQLVQSGGGVVQPGRSLRLSCAASGFTFSSYGMHWVRQAPGKGLEWVAVISYDGSIKYYADSVKGRFTISRDNSKNTLYLQMNSLRAEDTAVYYCARYYYHSSGSDAFDIWGQGTLVTVPSGGGGSGGGGSGGGGSQSVLTQPPSASGTPGQRVTISCSGSSSNIGSNTVNWYQRLPGAAPQLLIYNNNQRPSGVPDRFSGSKSGTSASLAISGLQSEDEADYYCAAWDDSLNGWVFGGGTKLTVLG

binding result [4]: binds
B6: I026C04-K (scFv)
scFv: QVQLVQSGAEVKKPGSSVKVSCRASGGSFNKHAISWVRQAPGRGLEWMGGILPMYGTANYAQKFQGRVTITADKLTNTVYMDLSRLRYEDTAVYYCARELGLSIVGATTGALDMWGKGTLVTVSSGGGGSGGGGSGGGGSAQSVLTQPPSVSAAPGQKVTISCSGSSSNIGNNYVSWYQQIPGTAPKLLIYENNKRPSGIPDRFSGSKSGASATLDITGLQTGDEADYYCGTWHSSQVVFGGGTKLTVLG

Second part, the binder before the results:

B2: I079B04 (scFv)
scFv: EVQLVESGGGLVQPGGSLRLSCAASGFTFSDYAMSWVRQAPGKGLEWVSAISGSGGSTSYADSVKGRFTISRDNSKNTLYLQMNSLRAEDTAVYYCASLLSDYWGRGTTVTVSSGGGGSGGGGSGGGGSQSVLTQPASVSGSPGQSITISCTGTSSDVGGYNYVSWYQQHPGKAPKLMIYEGSKRPSGVSYRFSGSKSGNTASLTISGLQAEDEADYYCSSYTTRSTRVFGGGTKLTVLG
binding result [2]: binds

B3: I068C06 (scFv)
scFv: EVQLVQSGAEVKKPGSSVKVSCKASGGTVSSRTISWVRQAPGQGLEWMGGSLPPSGAPIYAQKFQGRVAITADALTNTAFMELRSLKSDDTAVYYCARDQGRYLDLWGKGTLVTVSSGGGGSGGGGSGGGGSAQAVLTQPSSVSGAPGQRVTISCTGSRSNIGAGYDVHWYQQLPGTAPKLLIYGNSNRPSGVPDRFSGSKSGTSASLAITGLQADDEADYYCQSYDTSLRGLFGTGTKVTVLG
notes: also called I0068C06; 0068C06
IC50 [3]: 62 nM

B7: I026C04-K (scFv)
scFv: B6 scFv
binding result [5]: binds
